Measurements from IntAct's records for PubMed 19366670.

B1: 10 kDa anti-sigma factor (Enterobacteria phage T4), P32267 (parent)
chain: MNKNIDTVREIITVASILIKFSREDIVENRANFIAFLNEIGVTHEGRKLNQNSFRKIVSELTQEDKKTLIDEFNEGFEGVYRYLEMYTNK

Variants of: B1
Conditions: with rpob_ecoli rpoB

Variant	effect of a mutation on the interaction
N74D	decreasing interaction strength
